Here are results for 21 molecules from patent US20150344570A1 (published 2015).

First the molecules themselves.
B1: GpH7-A5/GpH7-B3 variant K334_04F/GpL16-k0 (antibody, human IgG1, kappa)
heavy 1: not shown
heavy 2: not shown
light: DIVMTQSPLSLPVTPGEPASISCQASESLVHSNRNTYLHWYLQKPGQSPQLLIYKVSNRFSGVPDRFSGSGSGTDFTLKISRVEAEDVGVYYCSQNTHVPPTFGQGTKVEIERTVAAPSVFIFPPSDEQLKSGTASVVCLLNNFYPREAKVQWKVDNALQSGNSQESVTEQDSKDSTYSLSSTLTLSKADYEKHKVYACEVTHQGLSSPVTKSFNRGEC
notes: also called He Ab K334_04F
B2: GpH7-A5/GpH7-B3 variant P238_09D/GpL16-k0 (antibody, human IgG1, kappa)
heavy 1: not shown
heavy 2: not shown
light: DIVMTQSPLSLPVTPGEPASISCQASESLVHSNRNTYLHWYLQKPGQSPQLLIYKVSNRFSGVPDRFSGSGSGTDFTLKISRVEAEDVGVYYCSQNTHVPPTFGQGTKVEIERTVAAPSVFIFPPSDEQLKSGTASVVCLLNNFYPREAKVQWKVDNALQSGNSQESVTEQDSKDSTYSLSSTLTLSKADYEKHKVYACEVTHQGLSSPVTKSFNRGEC
notes: also called He Ab P238_09D
B3: GpH7-A5/GpH7-B3 variant K334_05P/GpL16-k0 (antibody, human IgG1, kappa)
heavy 1: not shown
heavy 2: not shown
light: DIVMTQSPLSLPVTPGEPASISCQASESLVHSNRNTYLHWYLQKPGQSPQLLIYKVSNRFSGVPDRFSGSGSGTDFTLKISRVEAEDVGVYYCSQNTHVPPTFGQGTKVEIERTVAAPSVFIFPPSDEQLKSGTASVVCLLNNFYPREAKVQWKVDNALQSGNSQESVTEQDSKDSTYSLSSTLTLSKADYEKHKVYACEVTHQGLSSPVTKSFNRGEC
notes: also called He Ab K334_05P
B4: GpH7-A5/GpH7-B3 variant K334_08L/GpL16-k0 (antibody, human IgG1, kappa)
heavy 1: not shown
heavy 2: not shown
light: DIVMTQSPLSLPVTPGEPASISCQASESLVHSNRNTYLHWYLQKPGQSPQLLIYKVSNRFSGVPDRFSGSGSGTDFTLKISRVEAEDVGVYYCSQNTHVPPTFGQGTKVEIERTVAAPSVFIFPPSDEQLKSGTASVVCLLNNFYPREAKVQWKVDNALQSGNSQESVTEQDSKDSTYSLSSTLTLSKADYEKHKVYACEVTHQGLSSPVTKSFNRGEC
notes: also called He Ab K334_08L
B5: GpH7-A5/GpH7-B3 variant S239_03V/GpL16-k0 (antibody, human IgG1, kappa)
heavy 1: not shown
heavy 2: not shown
light: DIVMTQSPLSLPVTPGEPASISCQASESLVHSNRNTYLHWYLQKPGQSPQLLIYKVSNRFSGVPDRFSGSGSGTDFTLKISRVEAEDVGVYYCSQNTHVPPTFGQGTKVEIERTVAAPSVFIFPPSDEQLKSGTASVVCLLNNFYPREAKVQWKVDNALQSGNSQESVTEQDSKDSTYSLSSTLTLSKADYEKHKVYACEVTHQGLSSPVTKSFNRGEC
notes: also called He Ab S239_03V
B6: GpH7-A5/GpH7-B3 variant K334_10E/GpL16-k0 (antibody, human IgG1, kappa)
heavy 1: not shown
heavy 2: not shown
light: DIVMTQSPLSLPVTPGEPASISCQASESLVHSNRNTYLHWYLQKPGQSPQLLIYKVSNRFSGVPDRFSGSGSGTDFTLKISRVEAEDVGVYYCSQNTHVPPTFGQGTKVEIERTVAAPSVFIFPPSDEQLKSGTASVVCLLNNFYPREAKVQWKVDNALQSGNSQESVTEQDSKDSTYSLSSTLTLSKADYEKHKVYACEVTHQGLSSPVTKSFNRGEC
notes: also called He Ab K334_10E
B7: GpH7-A5/GpH7-B3 variant P331_15Y/GpL16-k0 (antibody, human IgG1, kappa)
heavy 1: not shown
heavy 2: not shown
light: DIVMTQSPLSLPVTPGEPASISCQASESLVHSNRNTYLHWYLQKPGQSPQLLIYKVSNRFSGVPDRFSGSGSGTDFTLKISRVEAEDVGVYYCSQNTHVPPTFGQGTKVEIERTVAAPSVFIFPPSDEQLKSGTASVVCLLNNFYPREAKVQWKVDNALQSGNSQESVTEQDSKDSTYSLSSTLTLSKADYEKHKVYACEVTHQGLSSPVTKSFNRGEC
notes: also called He Ab P331_15Y
B8: GpH7-A5/GpH7-B3 variant K334_13S/GpL16-k0 (antibody, human IgG1, kappa)
heavy 1: not shown
heavy 2: not shown
light: DIVMTQSPLSLPVTPGEPASISCQASESLVHSNRNTYLHWYLQKPGQSPQLLIYKVSNRFSGVPDRFSGSGSGTDFTLKISRVEAEDVGVYYCSQNTHVPPTFGQGTKVEIERTVAAPSVFIFPPSDEQLKSGTASVVCLLNNFYPREAKVQWKVDNALQSGNSQESVTEQDSKDSTYSLSSTLTLSKADYEKHKVYACEVTHQGLSSPVTKSFNRGEC
notes: also called He Ab K334_13S
B9: GpH7-A5/GpH7-B3 variant K334_07I/GpL16-k0 (antibody, human IgG1, kappa)
heavy 1: not shown
heavy 2: not shown
light: DIVMTQSPLSLPVTPGEPASISCQASESLVHSNRNTYLHWYLQKPGQSPQLLIYKVSNRFSGVPDRFSGSGSGTDFTLKISRVEAEDVGVYYCSQNTHVPPTFGQGTKVEIERTVAAPSVFIFPPSDEQLKSGTASVVCLLNNFYPREAKVQWKVDNALQSGNSQESVTEQDSKDSTYSLSSTLTLSKADYEKHKVYACEVTHQGLSSPVTKSFNRGEC
notes: also called He Ab K334_07I
B10: GpH7-A5/GpH7-B3 variant S267_06M/GpL16-k0 (antibody, human IgG1, kappa)
heavy 1: not shown
heavy 2: not shown
light: DIVMTQSPLSLPVTPGEPASISCQASESLVHSNRNTYLHWYLQKPGQSPQLLIYKVSNRFSGVPDRFSGSGSGTDFTLKISRVEAEDVGVYYCSQNTHVPPTFGQGTKVEIERTVAAPSVFIFPPSDEQLKSGTASVVCLLNNFYPREAKVQWKVDNALQSGNSQESVTEQDSKDSTYSLSSTLTLSKADYEKHKVYACEVTHQGLSSPVTKSFNRGEC
notes: also called He Ab S267_06M
B11: GpH7-A5/GpH7-B3 variant P238_04F/GpL16-k0 (antibody, human IgG1, kappa)
heavy 1: not shown
heavy 2: not shown
light: DIVMTQSPLSLPVTPGEPASISCQASESLVHSNRNTYLHWYLQKPGQSPQLLIYKVSNRFSGVPDRFSGSGSGTDFTLKISRVEAEDVGVYYCSQNTHVPPTFGQGTKVEIERTVAAPSVFIFPPSDEQLKSGTASVVCLLNNFYPREAKVQWKVDNALQSGNSQESVTEQDSKDSTYSLSSTLTLSKADYEKHKVYACEVTHQGLSSPVTKSFNRGEC
notes: also called He Ab P238_04F
B12: GpH7-A5/GpH7-B3 variant S239_10E/GpL16-k0 (antibody, human IgG1, kappa)
heavy 1: not shown
heavy 2: not shown
light: DIVMTQSPLSLPVTPGEPASISCQASESLVHSNRNTYLHWYLQKPGQSPQLLIYKVSNRFSGVPDRFSGSGSGTDFTLKISRVEAEDVGVYYCSQNTHVPPTFGQGTKVEIERTVAAPSVFIFPPSDEQLKSGTASVVCLLNNFYPREAKVQWKVDNALQSGNSQESVTEQDSKDSTYSLSSTLTLSKADYEKHKVYACEVTHQGLSSPVTKSFNRGEC
notes: also called He Ab S239_10E
B13: GpH7-A5/GpH7-B3 variant P238_15Y/GpL16-k0 (antibody, human IgG1, kappa)
heavy 1: not shown
heavy 2: not shown
light: DIVMTQSPLSLPVTPGEPASISCQASESLVHSNRNTYLHWYLQKPGQSPQLLIYKVSNRFSGVPDRFSGSGSGTDFTLKISRVEAEDVGVYYCSQNTHVPPTFGQGTKVEIERTVAAPSVFIFPPSDEQLKSGTASVVCLLNNFYPREAKVQWKVDNALQSGNSQESVTEQDSKDSTYSLSSTLTLSKADYEKHKVYACEVTHQGLSSPVTKSFNRGEC
notes: also called He Ab P238_15Y
B14: GpH7-A5/GpH7-B3 variant K334_14T/GpL16-k0 (antibody, human IgG1, kappa)
heavy 1: not shown
heavy 2: not shown
light: DIVMTQSPLSLPVTPGEPASISCQASESLVHSNRNTYLHWYLQKPGQSPQLLIYKVSNRFSGVPDRFSGSGSGTDFTLKISRVEAEDVGVYYCSQNTHVPPTFGQGTKVEIERTVAAPSVFIFPPSDEQLKSGTASVVCLLNNFYPREAKVQWKVDNALQSGNSQESVTEQDSKDSTYSLSSTLTLSKADYEKHKVYACEVTHQGLSSPVTKSFNRGEC
notes: also called He Ab K334_14T
B15: GpH7-A5/GpH7-B3 variant S324_06M/GpL16-k0 (antibody, human IgG1, kappa)
heavy 1: not shown
heavy 2: not shown
light: DIVMTQSPLSLPVTPGEPASISCQASESLVHSNRNTYLHWYLQKPGQSPQLLIYKVSNRFSGVPDRFSGSGSGTDFTLKISRVEAEDVGVYYCSQNTHVPPTFGQGTKVEIERTVAAPSVFIFPPSDEQLKSGTASVVCLLNNFYPREAKVQWKVDNALQSGNSQESVTEQDSKDSTYSLSSTLTLSKADYEKHKVYACEVTHQGLSSPVTKSFNRGEC
notes: also called He Ab S324_06M
B16: GpH7-A5/GpH7-B3 variant L235_20W/GpL16-k0 (antibody, human IgG1, kappa)
heavy 1: not shown
heavy 2: not shown
light: DIVMTQSPLSLPVTPGEPASISCQASESLVHSNRNTYLHWYLQKPGQSPQLLIYKVSNRFSGVPDRFSGSGSGTDFTLKISRVEAEDVGVYYCSQNTHVPPTFGQGTKVEIERTVAAPSVFIFPPSDEQLKSGTASVVCLLNNFYPREAKVQWKVDNALQSGNSQESVTEQDSKDSTYSLSSTLTLSKADYEKHKVYACEVTHQGLSSPVTKSFNRGEC
notes: also called He Ab L235_20W
B17: GpH7-A5/GpH7-B3 variant S267_19Q/GpL16-k0 (antibody, human IgG1, kappa)
heavy 1: not shown
heavy 2: not shown
light: DIVMTQSPLSLPVTPGEPASISCQASESLVHSNRNTYLHWYLQKPGQSPQLLIYKVSNRFSGVPDRFSGSGSGTDFTLKISRVEAEDVGVYYCSQNTHVPPTFGQGTKVEIERTVAAPSVFIFPPSDEQLKSGTASVVCLLNNFYPREAKVQWKVDNALQSGNSQESVTEQDSKDSTYSLSSTLTLSKADYEKHKVYACEVTHQGLSSPVTKSFNRGEC
notes: also called He Ab S267_19Q
B18: GpH7-A5/GpH7-B3 variant L328_13S/GpL16-k0 (antibody, human IgG1, kappa)
heavy 1: not shown
heavy 2: not shown
light: DIVMTQSPLSLPVTPGEPASISCQASESLVHSNRNTYLHWYLQKPGQSPQLLIYKVSNRFSGVPDRFSGSGSGTDFTLKISRVEAEDVGVYYCSQNTHVPPTFGQGTKVEIERTVAAPSVFIFPPSDEQLKSGTASVVCLLNNFYPREAKVQWKVDNALQSGNSQESVTEQDSKDSTYSLSSTLTLSKADYEKHKVYACEVTHQGLSSPVTKSFNRGEC
notes: also called He Ab L328_13S
B19: GpH7-A5/GpH7-B3 variant L328_02A/GpL16-k0 (antibody, human IgG1, kappa)
heavy 1: not shown
heavy 2: not shown
light: DIVMTQSPLSLPVTPGEPASISCQASESLVHSNRNTYLHWYLQKPGQSPQLLIYKVSNRFSGVPDRFSGSGSGTDFTLKISRVEAEDVGVYYCSQNTHVPPTFGQGTKVEIERTVAAPSVFIFPPSDEQLKSGTASVVCLLNNFYPREAKVQWKVDNALQSGNSQESVTEQDSKDSTYSLSSTLTLSKADYEKHKVYACEVTHQGLSSPVTKSFNRGEC
notes: also called He Ab L328_02A
B20: GpH7-A5/GpH7-B3 variant P331_16H/GpL16-k0 (antibody, human IgG1, kappa)
heavy 1: not shown
heavy 2: not shown
light: DIVMTQSPLSLPVTPGEPASISCQASESLVHSNRNTYLHWYLQKPGQSPQLLIYKVSNRFSGVPDRFSGSGSGTDFTLKISRVEAEDVGVYYCSQNTHVPPTFGQGTKVEIERTVAAPSVFIFPPSDEQLKSGTASVVCLLNNFYPREAKVQWKVDNALQSGNSQESVTEQDSKDSTYSLSSTLTLSKADYEKHKVYACEVTHQGLSSPVTKSFNRGEC
notes: also called He Ab P331_16H
B21: GpH7-A5/GpH7-B3 variant P331_20W/GpL16-k0 (antibody, human IgG1, kappa)
heavy 1: not shown
heavy 2: not shown
light: DIVMTQSPLSLPVTPGEPASISCQASESLVHSNRNTYLHWYLQKPGQSPQLLIYKVSNRFSGVPDRFSGSGSGTDFTLKISRVEAEDVGVYYCSQNTHVPPTFGQGTKVEIERTVAAPSVFIFPPSDEQLKSGTASVVCLLNNFYPREAKVQWKVDNALQSGNSQESVTEQDSKDSTYSLSSTLTLSKADYEKHKVYACEVTHQGLSSPVTKSFNRGEC
notes: also called He Ab P331_20W

This experiment has as its target T1, FcγRIIb extracellular domain with C-terminal His tag (human, UniProt P31994 43-217).
T1 construct: extracellular domain; also called FcgRIIb; 2b; not shown: His tag at the C terminus
T1 sequence (looked up): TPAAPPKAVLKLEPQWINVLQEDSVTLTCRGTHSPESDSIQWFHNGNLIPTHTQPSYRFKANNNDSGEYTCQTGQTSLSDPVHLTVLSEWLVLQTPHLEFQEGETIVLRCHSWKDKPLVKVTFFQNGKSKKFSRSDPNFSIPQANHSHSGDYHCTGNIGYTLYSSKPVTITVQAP
As to the kind of experiment: SPR, relative binding, HeCon Ab = 100. On the technique in general: SPR reads the build-up and loss of mass on a sensor chip optically.
As to B1, the He/Con_2b is 111 % of control.
The same measure for B2: 221 % of control; for B3: 105 % of control; for B4: 106 % of control.
On to B5, for which the He/Con_2b is 108 % of control.
With B6 the figure was 114 % of control; with B7, 114 % of control; with B8, 111 % of control.
The same measure for B9: 119 % of control; for B10: 210 % of control; for B11: 312 % of control.
As for B12, the He/Con_2b was 181 % of control.
The same measure for B13: 218 % of control.
Turning to B14, the He/Con_2b was 115 % of control.
With B15 the figure was 112 % of control.
The same measure for B16: 147 % of control; for B17: 218 % of control.
The same measure for B18: 149 % of control.
For B19, the He/Con_2b was 144 % of control.
With B20 the figure was 116 % of control.
As for B21, the He/Con_2b is 111 % of control.
